From the Human Domainome abundance scans (Beltran et al. 2025) come the findings set out here.

± gives the uncertainty stated by the source.

To fix the notation:
B1: POU domain, class 2, transcription factor 2, residues 200 to 269; numbered along this chain, P09086 (parent)
chain: LEELEQFARTFKQRRIKLGFTQGDVGLAMGKLYGNDFSQTTISRFEALNLSFKNMCKLKPLLEKWLNDAE

This series covers variants of B1. Kind of series: abundance fitness (aPCA) (normalised: wild type 0, dead -1); higher = more abundant; growth selection in yeast, the domain comes from the species named. The following applies: Homo sapiens.
Take LEELEQFAQTFKQRRIKLGFTQGDVGLAMGKLYGNDFSQTTISRFEALNLSFKNMCKLKPLLEKWLNDAE [R9Q]: the abundance fitness was -0.143 ± 0.058.

As to LEELEQFAKTFKQRRIKLGFTQGDVGLAMGKLYGNDFSQTTISRFEALNLSFKNMCKLKPLLEKWLNDAE [R9K], the abundance fitness is -0.011 ± 0.014.

Consider LEELEQFARPFKQRRIKLGFTQGDVGLAMGKLYGNDFSQTTISRFEALNLSFKNMCKLKPLLEKWLNDAE [T10P], for which the abundance fitness is -1 ± 0.025.

As to LEELEQFARCFKQRRIKLGFTQGDVGLAMGKLYGNDFSQTTISRFEALNLSFKNMCKLKPLLEKWLNDAE [T10C], the abundance fitness was -0.084 ± 0.022.

Take LEELEQFARDFKQRRIKLGFTQGDVGLAMGKLYGNDFSQTTISRFEALNLSFKNMCKLKPLLEKWLNDAE [T10D]: the abundance fitness was determined as 0.022 ± 0.029.

For the variant LEELEQFARAFKQRRIKLGFTQGDVGLAMGKLYGNDFSQTTISRFEALNLSFKNMCKLKPLLEKWLNDAE [T10A], the abundance fitness is -0.035 ± 0.018.

On to LEELEQFARMFKQRRIKLGFTQGDVGLAMGKLYGNDFSQTTISRFEALNLSFKNMCKLKPLLEKWLNDAE [T10M], for which the abundance fitness was -0.011 ± 0.019.

LEELEQFARFFKQRRIKLGFTQGDVGLAMGKLYGNDFSQTTISRFEALNLSFKNMCKLKPLLEKWLNDAE [T10F]: the abundance fitness was found to be 0.003 ± 0.024.

LEELEQFAREFKQRRIKLGFTQGDVGLAMGKLYGNDFSQTTISRFEALNLSFKNMCKLKPLLEKWLNDAE [T10E]: the abundance fitness came to 0.012 ± 0.025.

As for LEELEQFARNFKQRRIKLGFTQGDVGLAMGKLYGNDFSQTTISRFEALNLSFKNMCKLKPLLEKWLNDAE [T10N], the abundance fitness came out at 0.012 ± 0.029.

With LEELEQFARKFKQRRIKLGFTQGDVGLAMGKLYGNDFSQTTISRFEALNLSFKNMCKLKPLLEKWLNDAE [T10K], the abundance fitness is -0.024 ± 0.023.

For LEELEQFARQFKQRRIKLGFTQGDVGLAMGKLYGNDFSQTTISRFEALNLSFKNMCKLKPLLEKWLNDAE [T10Q], the abundance fitness was found to be 0.015 ± 0.019.

LEELEQFARIFKQRRIKLGFTQGDVGLAMGKLYGNDFSQTTISRFEALNLSFKNMCKLKPLLEKWLNDAE [T10I]: the abundance fitness was -0.052 ± 0.027.

For LEELEQFARRFKQRRIKLGFTQGDVGLAMGKLYGNDFSQTTISRFEALNLSFKNMCKLKPLLEKWLNDAE [T10R], the abundance fitness is -0.022 ± 0.017.

For the variant LEELEQFARHFKQRRIKLGFTQGDVGLAMGKLYGNDFSQTTISRFEALNLSFKNMCKLKPLLEKWLNDAE [T10H], the abundance fitness was -0.013 ± 0.022.

For the variant LEELEQFARSFKQRRIKLGFTQGDVGLAMGKLYGNDFSQTTISRFEALNLSFKNMCKLKPLLEKWLNDAE [T10S], the abundance fitness is -0.016 ± 0.017.

Regarding LEELEQTARTFKQRRIKLGFTQGDVGLAMGKLYGNDFSQTTISRFEALNLSFKNMCKLKPLLEKWLNDAE [F7T], the abundance fitness was -0.281 ± 0.057.

For the variant LEELEQMARTFKQRRIKLGFTQGDVGLAMGKLYGNDFSQTTISRFEALNLSFKNMCKLKPLLEKWLNDAE [F7M], the abundance fitness is -0.226 ± 0.075.

As for LEELEQRARTFKQRRIKLGFTQGDVGLAMGKLYGNDFSQTTISRFEALNLSFKNMCKLKPLLEKWLNDAE [F7R], the abundance fitness is -0.96 ± 0.072.

For LEELEQPARTFKQRRIKLGFTQGDVGLAMGKLYGNDFSQTTISRFEALNLSFKNMCKLKPLLEKWLNDAE [F7P], the abundance fitness was -1.13 ± 0.23.

Take LEELEQYARTFKQRRIKLGFTQGDVGLAMGKLYGNDFSQTTISRFEALNLSFKNMCKLKPLLEKWLNDAE [F7Y]: the abundance fitness is -0.192 ± 0.075.

Regarding LEELEQNARTFKQRRIKLGFTQGDVGLAMGKLYGNDFSQTTISRFEALNLSFKNMCKLKPLLEKWLNDAE [F7N], the abundance fitness was -0.48 ± 0.099.

For LEELEQDARTFKQRRIKLGFTQGDVGLAMGKLYGNDFSQTTISRFEALNLSFKNMCKLKPLLEKWLNDAE [F7D], the abundance fitness is -0.595 ± 0.078.

In the case of LEELEQWARTFKQRRIKLGFTQGDVGLAMGKLYGNDFSQTTISRFEALNLSFKNMCKLKPLLEKWLNDAE [F7W], the abundance fitness is -0.1 ± 0.046.

LEELEQVARTFKQRRIKLGFTQGDVGLAMGKLYGNDFSQTTISRFEALNLSFKNMCKLKPLLEKWLNDAE [F7V]: the abundance fitness was -0.237 ± 0.048.

Regarding LEELEQCARTFKQRRIKLGFTQGDVGLAMGKLYGNDFSQTTISRFEALNLSFKNMCKLKPLLEKWLNDAE [F7C], the abundance fitness was -0.114 ± 0.052.

As for LEELEQKARTFKQRRIKLGFTQGDVGLAMGKLYGNDFSQTTISRFEALNLSFKNMCKLKPLLEKWLNDAE [F7K], the abundance fitness is -0.783 ± 0.1.

With LEELEQLARTFKQRRIKLGFTQGDVGLAMGKLYGNDFSQTTISRFEALNLSFKNMCKLKPLLEKWLNDAE [F7L], the abundance fitness is -0.286 ± 0.044.

For LEELEQHARTFKQRRIKLGFTQGDVGLAMGKLYGNDFSQTTISRFEALNLSFKNMCKLKPLLEKWLNDAE [F7H], the abundance fitness was -0.416 ± 0.1.

LEELEQIARTFKQRRIKLGFTQGDVGLAMGKLYGNDFSQTTISRFEALNLSFKNMCKLKPLLEKWLNDAE [F7I]: the abundance fitness was -0.397 ± 0.11.

In the case of LEELEQEARTFKQRRIKLGFTQGDVGLAMGKLYGNDFSQTTISRFEALNLSFKNMCKLKPLLEKWLNDAE [F7E], the abundance fitness is -0.357 ± 0.076.

Turning to LEELEQQARTFKQRRIKLGFTQGDVGLAMGKLYGNDFSQTTISRFEALNLSFKNMCKLKPLLEKWLNDAE [F7Q], the abundance fitness was -0.676 ± 0.091.

Turning to LEELEQFLRTFKQRRIKLGFTQGDVGLAMGKLYGNDFSQTTISRFEALNLSFKNMCKLKPLLEKWLNDAE [A8L], the abundance fitness is -0.371 ± 0.033.

On to LEELEQFWRTFKQRRIKLGFTQGDVGLAMGKLYGNDFSQTTISRFEALNLSFKNMCKLKPLLEKWLNDAE [A8W], for which the abundance fitness is -0.452 ± 0.08.

Turning to LEELEQFHRTFKQRRIKLGFTQGDVGLAMGKLYGNDFSQTTISRFEALNLSFKNMCKLKPLLEKWLNDAE [A8H], the abundance fitness was -0.604 ± 0.13.

Regarding LEELEQFDRTFKQRRIKLGFTQGDVGLAMGKLYGNDFSQTTISRFEALNLSFKNMCKLKPLLEKWLNDAE [A8D], the abundance fitness was -0.883 ± 0.19.

With LEELEQFYRTFKQRRIKLGFTQGDVGLAMGKLYGNDFSQTTISRFEALNLSFKNMCKLKPLLEKWLNDAE [A8Y], the abundance fitness was -0.955 ± 0.23.

Turning to LEELEQFTRTFKQRRIKLGFTQGDVGLAMGKLYGNDFSQTTISRFEALNLSFKNMCKLKPLLEKWLNDAE [A8T], the abundance fitness is -0.065 ± 0.054.
